In patent US20220380409A1 (published 2022) one finds Kd and EC50 data, which are given here for two molecules.

Ends that are not written are not given here.

One experiment addresses PfLDH protein (UniProt Q27743 2-316).
Experiment [1] deals with T1, GST-PfLDH (UniProt Q27743 2-316). Nature of the experiment: sandwich ELISA. For orientation: An ELISA detects its analyte on a solid surface through an enzyme-linked reagent.
In a further experiment the target is GST-PvLDH (UniProt P84793 1-313). Put plainly: sandwich ELISA.
The target of experiment [2] is T1, GST-PfLDH. Nature of the experiment: ELISA.

B1: binary ligand hevwh-YLGHK (peptide)
peptide 1: HEVWH
peptide 2: YLGHK
modifications: not fully specified (bridges)
For orientation: Kd means the concentration at which binding is half-saturated. Usually EC50 stands for the concentration needed to bring the measured effect to its halfway point. A high value points to a need for much substance. Molecule B1 showed a Kd with PfLDH protein of around 10 nM. Further, the EC50 with GST-PfLDH [1] amounted to 15.1 nM; with GST-PvLDH it was 12 nM.

B2: RCM cyclized version of the HWSAN (SEQ ID NO:11) peptide (peptide)
peptide: HWSAN
modifications: staple (positions not given here); also: RCM ring between olefin-bearing non-natural residues, places not given here, biotinylated
The molecule B2 registered an EC50 in the experiment with GST-PfLDH [2] of 2.57 nM.
